Reference: US20250145697A1 (WASHINGTON UNIVERSITY, published 2025)

B1: HJ156 (antibody, V domains shown)
VH: QVQLQQSGPELVKPGASVKISCKASGYIFTDYYINWVKRRPGQGLEWIGWIFPGSGVSYYNEQFKGKATLTVDKPSNTAYIFLSRLTSEDSAVYFCARYYSSSPFAYWGQGTLVTVSA
VL: DVLMTQTPLSLPVSLGDQASISCRSSQNIIHSNGNTYLEWFLQRPGQSPELLIYKVSNRFSGVPDRFSGSGSGTDFTLKISRVEAEDLGVYYCFQGSHVPYTFGGGTKLEIKR
notes: murine monoclonal antibody from hybridoma; also called HJ156B (biotinylated)
B2: HJ154 (antibody, V domains shown)
VH: QVQLQQPGTEFVMSGASVMLSCKASGYIFTNYWLHWVKQRPGHGLEWIGEIDPSDSYSICNDNFKGKSTLTVDKSSSTAYMQLSSLTSEDSAVYYCAGSLGRVGLAYWGQGTLVTVST
VL: QIVLTQSPAIMSASPGEKVTMSCSASSSVSNMYWYQQKPGSSPKSWIYRTSNLASGVPARFSGSGSGTSYSLTISNMEAEDAATYYCQHYQNYPLTFGAGTKLELKR
notes: murine monoclonal antibody from hybridoma; also called HJ154B (biotinylated)

Key:
[1] = target: T1, heat-induced aggregates of ApoE4 (human, UniProt P02649 19-317); assay: ELISA: pellet fraction of ApoE4 incubated at 40 C for 24 h loaded at the same concentration on the plate, HJ156 titrated, OD650
T1 construct: mature; aggregated state of the recombinant protein; also called ApoE4 incubated at 40 C for 24 hr; heat-treated ApoE4

[2] = target: T2, heat-induced aggregates of ApoE2 (human, UniProt P02649 19-317); assay: ELISA: pellet of heat-aggregated ApoE2 coated at 0.5 ug/ml, antibody titrated, HRP goat anti-mouse IgG, OD650
T2 construct: mature; aggregated state of the recombinant protein; also called heat treated ApoE2
Method: (§1) The aggregated ApoE was induced by incubating ApoE at 1 mg/ml concentration at 40° C. for 24 hours. The aggregates then were recovered in the pellet fraction following ultracentrifugation at 186,000 g for 1 hour. For ELISA, the untreated ApoE or heat-induced aggregates of ApoE were coated directly to ELISA plates at 0.5 μg/ml overnight at 4° C. After three washes with PBS, the wells were blocked with 1% BSA-PBS for 1 hour at room temperature with shaking at 500 rpm. The blocked wells were washed once with PBS and subsequently loaded with antibodies at serial concentrations (starting at 100 nM with 5-fold dilutions thereafter). Bound antibodies were detected with HRP-labeled goat anti-mouse IgG (Jackson Immunoresearch) and visualized with TMB substrate at OD₆₅₀ (reaction stopped with BioFX stop solution).

[3] = target: T3, recombinant alipidated human ApoE2 (human, UniProt P02649 19-317); assay: ELISA: untreated ApoE2 coated at 0.5 ug/ml, antibody titrated, HRP goat anti-mouse IgG, OD650
T3 construct: mature; full length recombinant protein made in E. coli or bought
Method: as §1

[4] = target: T3, recombinant alipidated human ApoE2; assay: direct ELISA on coated recombinant alipidated ApoE (0.5 ug/ml)
Procedure, shortened: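 Plates coated overnight with full-length recombinant alipidated ApoE (0.5 μg/ml), from E. coli or a commercial source, were washed, blocked and incubated with anti-ApoE antibody. Binding was detected with goat anti-mouse IgG-HRP to generate dose-response curves.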

T3 sequence (P02649 19-317 R176C): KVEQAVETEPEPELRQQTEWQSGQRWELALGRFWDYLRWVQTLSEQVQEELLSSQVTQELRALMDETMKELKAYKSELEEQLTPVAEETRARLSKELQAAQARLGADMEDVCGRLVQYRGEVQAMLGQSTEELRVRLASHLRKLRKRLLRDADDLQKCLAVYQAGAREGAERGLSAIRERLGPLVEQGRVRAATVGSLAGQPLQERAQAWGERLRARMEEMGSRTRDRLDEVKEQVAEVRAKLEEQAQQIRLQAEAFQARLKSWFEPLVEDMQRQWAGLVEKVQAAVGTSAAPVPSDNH
T2 sequence (P02649 19-317 R176C): as above

Row | Binder | EC50 (read off the curve) [1] [nM] | EC50 (read off the curve) [2] [nM] | EC50 (read off the curve) [3] [nM] | EC50 [4] [nM]
1 | B1 | ~0.1 | – | – | –
2 | B2 | – | 0.16 to 0.2 | ~0.2 | 0.25
